Where a chain is given by its changes, count along the chain named. Names may count otherwise. One block for each binder: values may come before it.
What was measured:
[1] = target: T1, human CTLA-4 on 58 α-β-CTLA-4/CD3 ζ cells (human; mouse (mCD3ζ)); assay: flow cytometry, non-fucosylated IgG1 on 58αβ-CTLA4/mCD3ζ cells, pH 6.2
T1 construct: also called 58αβ-hCTLA4/mCD3ζ cells; 58αβ-CTLA4/mCD3ζ cells
Protocol: (§1) Antibodies were titrated from 100 μg/mL at a 1:4 dilution across 12 points in pH-specific buffers and incubated for 30-60 minutes. Buffers contained HBSS, 2% FBS^HI, 0.02% sodium azide, 2 mM EDTA, and sodium phosphate buffer (pH 5.4). Sodium phosphate buffer was added until desired pH was reached (7.2, 6.7, 6.2). Approximately 3e5 cells/well were tested for each cell line. […] Detection was done with a monovalent anti-hKappa secondary nanobody conjugated to Alexa647 and used at a dilution of 1:2000. Cells were fixed with BD Fix Solution I for 30 minutes prior to resuspension in pH-specific buffers and reading on the cytometer (BD Fortessa).

[2] = target: T1, human CTLA-4 on 58 α-β-CTLA-4/CD3 ζ …; assay: cell-based or functional assay
[3] = target: T1, human CTLA-4 on 58 α-β-CTLA-4/CD3 ζ …; assay: flow cytometry, non-fucosylated IgG1 on 58αβ-CTLA4/mCD3ζ cells, pH 7.2
Protocol: as §1

[4] = target: T1, human CTLA-4 on 58 α-β-CTLA-4/CD3 ζ …; assay: flow cytometry, non-fucosylated IgG1 on 58αβ-CTLA4/mCD3ζ cells, pH 6.7
Protocol: as §1

[5] = target: T1, human CTLA-4 on 58 α-β-CTLA-4/CD3 ζ …; assay: cell-based or functional assay; remark: listed apart in the source
[6] = target: T1, human CTLA-4 on 58 α-β-CTLA-4/CD3 ζ …; assay: cell-based or functional assay; remark: listed apart in the source
[7] = target: T2, monomeric human CTLA-4 (human, UniProt P16410 36-161, limits assumed); assay: SPR, captured Fab, pH 6.0
T2 construct: Soluble monomeric analyte in SPR; also called huCTLA-4
T2 sequence: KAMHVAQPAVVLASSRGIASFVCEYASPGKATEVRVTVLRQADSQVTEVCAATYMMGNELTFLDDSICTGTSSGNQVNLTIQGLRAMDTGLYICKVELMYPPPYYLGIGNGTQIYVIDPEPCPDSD
Protocol: (§2) Binding of selected variants to human CTLA-4 was determined essentially as described in Example 3. […] Nomenclature and sequences for these antibodies is provided at Tables 6 and 7, and in the sequence listing as summarized at Table 8.
(§3) Monomeric human CTLA-4 was flowed as analyte with up to 2 μM top concentration. Between cycles, the capture surface was regenerated with 75 mM phosphoric acid. Experiments were run on a BIACORE® T200 instrument at 37° C. Running buffers were HEPES buffered saline for pH 7.4 experiments and Bis-Tris buffered saline for lower pH experiments. […] Double referenced sensorgrams were fitted to a 1:1 Langmuir binding model with mass transport to determine equilibrium dissociation constants (KD), as well as association (kₐ) and dissociation (kd) rate constants where appropriate.

[8] = target: T2, monomeric human CTLA-4; assay: SPR, captured Fab, pH 7.4
Protocol: as §2, §3

[9] = target: T2, monomeric human CTLA-4; assay: SPR, captured Fab, pH 6.0; remark: listed apart in the source
Protocol: (§4) Unless otherwise indicated, experiments were performed with a BIACORE® SPR surface plasmon resonance spectrometer (Biacore AB, Uppsala, Sweden). Antibodies were tested as monovalent Fab fragments to simplify analysis.
as §3

[10] = target: T2, monomeric human CTLA-4; assay: SPR, captured Fab, pH 7.4; remark: listed apart in the source
Protocol: as §4, §3

[11] = target: T2, monomeric human CTLA-4; assay: SPR, captured Fab, pH 6.0 vs 7.4
Protocol: as §4, §3

[12] = target: T2, monomeric human CTLA-4; assay: SPR, captured Fab, pH 6.0 vs 7.4; remark: listed apart in the source
Protocol: as §2, §3

[13] = target: T2, monomeric human CTLA-4; assay: SPR, captured Fab, pH 7.4, second experiment
Protocol: (§5) See Example 3. Antibodies were tested as monovalent Fab fragments to simplify analysis.
as §3

[14] = target: T2, monomeric human CTLA-4; assay: SPR, captured Fab, pH 6.0, second experiment
Protocol: as §5, §3

[15] = target: T2, monomeric human CTLA-4; assay: SPR, captured Fab, pH 7.4; remark: listed apart in the source
Protocol: as §5, §3

[16] = target: T2, monomeric human CTLA-4; assay: SPR, captured Fab, second experiment of Table 3
Protocol: as §5, §3

[17] = target: T2, monomeric human CTLA-4; assay: SPR, captured Fab, pH 6.0 vs 7.4, second experiment
Protocol: as §5, §3

[18] = target: T2, monomeric human CTLA-4; assay: SPR, captured Fab, pH 6.0; remark: listed apart in the source
Protocol: as §5, §3

[19] = target: T2, monomeric human CTLA-4; assay: SPR, pH 6.0 and pH 7.5 (FIG. 6)
Protocol: as §4, §3

[20] = target: T2, monomeric human CTLA-4; assay: SPR, captured Fab, first experiment of Table 3
Protocol: as §5, §3

[21] = target: T2, monomeric human CTLA-4; assay: SPR, captured Fab, pH 6.0 vs 7.4; remark: listed apart in the source
Protocol: as §5, §3

B3: ipi.2 Fab (Fab, V domains shown)
VH: QVQLVESGGGVVQPGRSLRLSCAASGFTFSSYTMHWVRQAPGKGLEWVTFISYDGNHKYYADSVKGRFTISRDNSKNTLYLQMNSLRAEDTAIYYCARTGWLGPFDYWGQGTLVTVSS
VL: not shown
notes: Tested as monovalent Fab; also called N56H (Kabat)
Kd [7]: 6.8 nM
kon [7]: 1.2e+06 M⁻¹ s⁻¹
t1/2 [7]: 1.38 min
Kd [8]: 5.8 nM
kon [8]: 880000 M⁻¹ s⁻¹
t1/2 [8]: 2.27 min
Kd [9]: 13 nM
koff [9]: 0.0065 s⁻¹
kon [9]: 490000 M⁻¹ s⁻¹
Kd [10]: 16 nM
koff [10]: 0.011 s⁻¹
kon [10]: 670000 M⁻¹ s⁻¹
KD 7.4/6 (APBP) [11]: 0.8
KD 7.4/6 (APBP) [12]: 0.9
ka 6/7.4 [12]: 1.4
t1/2 6/7.4 [12]: 0.6

B4: ipi.25 Fab (Fab, V domains shown)
VH: B3 VH with H57N
VL: not shown
notes: Tested as monovalent Fab; also called LCDR1 S28E/S31D; LCDR1 S27aE/S30D (Kabat)
Kd [7]: 6.2 nM
kon [7]: 1.2e+06 M⁻¹ s⁻¹
t1/2 [7]: 1.5 min
Kd [13]: 37 nM
koff [13]: 0.017 s⁻¹
kon [13]: 460000 M⁻¹ s⁻¹
Kd [14]: 7.4 nM
koff [14]: 0.0074 s⁻¹
kon [14]: 1e+06 M⁻¹ s⁻¹
Kd [15]: 25 nM
koff [15]: 0.018 s⁻¹
kon [15]: 720000 M⁻¹ s⁻¹
ratio of KD (7.4/6.0) normalized to the ratio of ipilimumab [16]: 6.3
Kd [8]: 25 nM
kon [8]: 720000 M⁻¹ s⁻¹
t1/2 [8]: 0.65 min
KD 7.4/6 (APBP) [17]: 5
ka 6/7.4 [17]: 2.2
kd 7.4/6 [17]: 2.3
Kd [18]: 6.2 nM
koff [18]: 0.0077 s⁻¹
kon [18]: 1.2e+06 M⁻¹ s⁻¹
CAPBP (ratio of KD normalized to ipilimumab) [19]: 6.3
ratio of KD (7.4/6.0) normalized to the ratio of ipilimumab [20]: 4
KD 7.4/6 (APBP) [21]: 4
ka 6/7.4 [21]: 1.7
kd 7.4/6 [21]: 2.3
KD 7.4/6 (APBP) [12]: 4.1
ka 6/7.4 [12]: 1.7
t1/2 6/7.4 [12]: 2.4

More lines, now with the values ahead:

Cmax (MFI) [1]: 122000 MFI
EC50 [1]: 2.94 nM
IC50 (read off the curve), mIL-2 secretion, 58αβ-hCTLA/mCD3ζ:rhB7-1 blocking assay, 18 h, pH 7.0 [2]: ~1 nM
Cmax (MFI) [3]: 125000 MFI
EC50 [3]: 2.8 nM
Cmax (MFI) [4]: 126000 MFI
EC50 [4]: 2.85 nM
IC50 (read off the curve), mIL-2 secretion, 58αβ-hCTLA/mCD3ζ:rhB7-1 blocking assay, 18 h, pH 7.2 [5]: ~1 nM
IC50 (read off the curve), mIL-2 secretion, 58αβ-hCTLA/mCD3ζ:rhB7-1 blocking assay, 18 h, pH 6.8 [6]: ~1 nM
B1: ipi.100, non-fucosylated IgG1 (antibody, V domains shown)
VH: B3 VH with S31H, H57N
VL: not shown
modifications: non-fucosylated N-linked glycan
notes: Non-fucosylated full-length human IgG1; also called Ipi.100 IgG1-NF

Cmax (MFI) [1]: 121000 MFI
EC50 [1]: 3.52 nM
IC50 (read off the curve), mIL-2 secretion, 58αβ-hCTLA/mCD3ζ:rhB7-1 blocking assay, 18 h, pH 7.0 [2]: ~1 nM
Cmax (MFI) [3]: 124000 MFI
EC50 [3]: 3.81 nM
Cmax (MFI) [4]: 126000 MFI
EC50 [4]: 4.06 nM
IC50 (read off the curve), mIL-2 secretion, 58αβ-hCTLA/mCD3ζ:rhB7-1 blocking assay, 18 h, pH 7.2 [5]: ~1 nM
IC50 (read off the curve), mIL-2 secretion, 58αβ-hCTLA/mCD3ζ:rhB7-1 blocking assay, 18 h, pH 6.8 [6]: ~0.7 nM
B2: ipi.101, non-fucosylated IgG1 (antibody, V domains shown)
VH: B3 VH with S31H, N56H, H57N
VL: not shown
modifications: non-fucosylated N-linked glycan
notes: Non-fucosylated full-length human IgG1; also called Ipi.101 IgG1-NF
